From the nanobody polyreactivity screen of Harvey et al. (2022)

test: yeast display, Sf9 membrane polyspecificity reagent, FACS + sequencing; frameworks hold sequencing errors
Procedure, shortened: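 Galactose-induced (36–48 hours) yeast carrying a synthetic nanobody display library were exposed to 10% biotinylated, detergent-solubilized Sf9 membrane reagent at 4 °C for 1 hour. FACS followed streptavidin microbead enrichment, using low and high (top ~1%) gates for expression (anti-HA) and reagent binding (streptavidin). Colony PCR, MiSeq 2 × 250 sequencing and CDR-length filtering followed. Labels for polyreactivity reflect the gate of origin.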

Sequence	polyreactivity (PSR sort gate)
QVQLVESGGGLVQAGGSLRLSCAASGSIFGRYAMGWYRQAPGKERELVAVITSGGSTNYADSVKGRFTISRDKAKNTVYLQMNSLKPEDTAVYYCAVRPYELHRLADQPGGDDYWGQGTQVTVSS	low polyreactivity
QVQLVESGGGLVQAGGSLRLSCAASGSIFWYNTMGWYRQAPGKERELVAAISYRGGRTYYADSVKGRFTISRDNAKNTVYLQMNSLKPEDTAVYYCNAPRYLGGGQDALGDYWGQGTQVTVSS	high polyreactivity
QVQLVESGGGLVQAGGSLRLSCAASGRTFYYYAMGWYRQAPGKERELVAGISWSAGSTYYADSVKGRFTISRDNAKNTVYLQMNSLKPEDTAVYYCAARYWQSYRSQVTHSSTLDYWGQGTQVTVSS	low polyreactivity
QVQLVESGRGLVQAGRTLRLSCAASGFIFQWYTMGWYRQAPGKDRELVADIRSGGDTNYADSVKGRFTISRDTAKNSVYLQMYSLKPEDTAVYYCATETFFPLRRASYGRKLGYWGQGTQVTVSS	low polyreactivity
QVQLVESGGGLVQAGGSLRLSCAASGIIFGFNAMRWYRQAPGKEREFVADITYSGGSTYYADSVKGRFTISRDNAKNTVYLHMNSLKPEDTAVYYCAADEVSFWGYIYDYWGQGTQVTVSS	high polyreactivity
QVQLQESGGGLVKAGGSLRLSCAASGYLILQYAMGWYRPAPGKERELVASIARGTSTYYADSVKGRFTISRDNAKNTVYLQMNSLKPEDTAVYYCAVIYSWGLWHDYWGQGTQVTVSS	high polyreactivity
QVQLVESGGGLVQAGGSLRLSCAASGRIFILYAMGWYRQAPGKERELVAAITGGSTYYADSVKGRFTISRDNAKNTVYLQMNSLKPEDSAVYYCAADVRHYIWEYYYWGQGTQVTVSS	low polyreactivity
QVPLVESGGGLVQAGGSLRLSCAASGSIFYTNAMGWSIPAPGKERELVARLSSSSGRTYYADSVKGRFPISRDNAKNTVYLKMKSLIPDYTAVYYCAARYLLRRHTNMDYWGHGTQVTVSS	high polyreactivity
QVQLVESGGGLVQAGGSLRLSCAASGRTFGYYAMGWYRPAPGKERELVAAITRTGGSTHYADSVKGRFTISRDNAKNTVYLQMNSLKPEDTAVYYCAVDYHQAWPSADYWFEYDYWGQGTQVTVSS	low polyreactivity
QVQLVESGGGLVQAGGSLRLSCAASGSNFYFYAMGWYRQAPGKERELVAAISFTDTSTYYADSVKGRFTISRDNAKNTVYLQMNSLKPEDTAVYYCAADFTQYYYWTRYEYWGQGTQVTVSS	high polyreactivity
QVQLVESGGGLVQAGGSLRLSCAASGSTFRYYTMGWYRQAPGKERELVAAITWSGGSTYYADSVKGRFTISRDNAKNTVNLQMNSLKPEDTEVYYCNKEDVGSSESDYWGQGTQVTVSS	high polyreactivity
QVQLVESGGGLVQAGGSLRLSCAASGITSVVYAMGWYRQAPGKERELVAAISSAGSTYYADSVKGRFTISRDNAKNTVYLQMNSLKPEDTAVYYCAAAGYPQTYLYYYWGQGTQVTVSS	low polyreactivity
QVHLVESGGGLVQAGGSLRLSCAASGFIFVRNARGWYRQAPGKERELVARISRSGGSTYYADSVKGRFTISRDNAKNTVYLQMNSLKQEDTAVYYCAAVLQAYPRLDYWGQGTQVTVSS	high polyreactivity
QVQLVESGGGLVQAGGSLRLSCAASGSTFDSNVMGWYRQAPGKERELVAAIDLSGGITYYADSVKGRFTISRDNAKNTVYLQMNSLKPEDTAVYYCATDEGYRYPHVDLTEVYYWGQGTQVTVSS	low polyreactivity
QVQLVESGGGLVQAGGSLRLSCAASGRTFRAYAMGWNRQPPGKVRELVAVISLSGGSTYYADSVKGRFTISRDNAKNTVYLQMNSLKPEDTAVYYCAAVDWSYTGWRYDYWGQGTQVTVSS	low polyreactivity
QVQLVESGGGLVQAGGSLRLSCAASGSIFWSYAMGWYRQAPGKEREFVAAISGGDGTTYYADSVKGRFTISRDNAKNTVYLQMNSLKPEDTAVYYCNAVGYWYGSLEYDYWGQGTQVTVSS	low polyreactivity

Sequence	polyreactivity (PSR sort gate)
QVQLVESGGGLVQAGGSLRLSCAASGSTSYSYMGWYRQAPGKERELVAAIDESGGSTYYADSVKGRFTISRDNAKNTVYLQMNSLKPEDTAVYYCNRRYGRSYRWGYGYWGQGTQVTVSS	low polyreactivity
QVQLVESGGGLVQAGGSLRLSCAASGSTFGGYAMGWYRQAPGKEREFVAAISWRGGGTYYADSVKGRFTISRDNAMNTVYLQMNSLKPEDTAVYYCAAERRYTYQYNYWGQGTQVTVSS	high polyreactivity
QVQLVESGGGLVQAGRSLRLSCAASGFTLTPYAMGWYRQAPGKERELVARISDSGDSTYYADSVKGRFTMSRDNAKNTVYLQMNRLKPEDTAVYYCATDWNAGIDYYRFYADEYNYWGQGSQVTVSS	low polyreactivity
QVQLVESGGGLVQAGGSLRLSCAASGSTFFIYAMGWYRQAPGKERELVAAISKSGGTTYYADSVKGRFTISRDNAKNTVYLQMNSLKPEDTAVYYCAAYYTKGVARRQFYYWGQGTQVTVSS	high polyreactivity
QVQLEESGGGLVQAGGSLRLSCAASGSTVGIYAMGWYRPAPGKERELVAAISSRGSTYYADSVKGRFTISRDNAKNTVYLQMNSLKPEDTAVYYCAAGYAWYNYWGQGTQVTVSS	high polyreactivity
QVQLVESGGGLVQAGGSLRLSCAASGRIFWFYAMGWYRQATGKERELVAAINTSVGRTHYADSVKGRFTISRDNAKNTVYLQMNSLKPEDTAVYYCASDVKRYGWEYGYWGQGTQVTVSS	low polyreactivity
QVQHVESGGGLVQAGGSLRLSCAASGSTFAFYAMGWYRQAPGKERELVAAITWRVGSTYYADSVKGRFTISRDNAKNTVYLQMNSLKPEDTAVYYCAVDIPFYDSDYCGQGTQVTVSS	low polyreactivity
QVQLVESGGGLVQAGGSLRLSCAASGITLFYYAMGWYRQAPGKERELVAVISASGGSTYYADSVKGRFTISRDNAKNTVYLQMNSLKPEDTAVYYCAAVAYWRSSSWYYYWGQGTQVTVSS	high polyreactivity
QVQLVESGGGLVQAGGSLRLSCAASGFIFPRNVMGWYRQAPGKERELVAAISRSGGSTYYADSVKGRITISRDNAKNTVYLQMNSLKPEDTAVYYCDKRTFYNGEYWGQGTQVTVSS	high polyreactivity
QVQLVESGGGLVQAGGSIRLTSAASGRTFVTHPMGWYRQAPGKDRELVAAISRSGSSTYYADSVKGRFTISRDNAKNSVYLQMNSLKAADTAVYYFARVRSRATEVVEYDYWGQGTQVTVSS	high polyreactivity
QVHLVDSGGGLVQAGGSLRLTCSASGFTFRYYTMGWYIQAPGKERELVAVIRSTGSTNYADSVKGRFTISRDNAKNTVYLQMNSLKPEDTAVYYFNAARGWYNPPKYGSIGFDFWGQGTQVTVSS	high polyreactivity
QVQLVESGGGLVQAGGSLRLSCAASGRIFPYNTMGLYRQAPGKERELVAAISRRGGSTYYADSVKGRFTISRDNAKNTVYLQMNSLKPEDTAVYYCNAVKPRDYGGLAYDYWGQGTQVTVSS	high polyreactivity
QVQLVESGGGLVHAGGSLRLSCAASGSIFVVYTMGWYRQAPGQERELVAAITQNGGSSTYYADSVKGRFTISRDNAKNTVYLQMNSLKPEDTAVYYCNKDILSPVVRIFKYGYDMDYWGQGTQVTVSS	low polyreactivity
QVQLVESGGGLVQAGGSLRLSCAASGRIFSLNTMGWYRQAPGKERELVATITKRGGNTYYADSVKGRFTISRDNAKNTVYLQMNSLKPEDTAFYYCAVPRSITYRYGYWGQGTQVTVSS	high polyreactivity
QVQLVESGGGLVQAGGSLRLICAASGSTFGANAMGWYRQAPGKEREFVAAISGSGTTTYYADSVKGRFTISRDNAKNTVYLQMNSLKPEDTPVYYCAKTRKAHWLEYWGQGTQVTVSS	low polyreactivity
